Data published in patent US20250084142A1 (INTARCIA THERAPEUTICS, published 2025).
Each block holds one binder with its values, some of them ahead of it. Starred links: 1 amine or outer side, 2 acyl side, 3 side chain; linkers in the order of their positions; H or OH if unused. Non-standard residues stand in square brackets, D forms with d. Groups on a side chain read outwards from the residue. No end group written: not given here. *: point of attachment. C20 diacid = O=C(O)CCCCCCCCCCCCCCCCCCC(=O)*; Phe(4-Me) = Cc1ccc(C[C@H](N)C(=O)O)cc1; γGlu = O=C(O)[C@H](CCC(=O)[*:2])N[*:1]

Columns and labels:
NPY5R = biological target: T1, NPY5R; test: cell-based or functional assay
T1 sequence (Q15761 1-445, species assumed, looked up): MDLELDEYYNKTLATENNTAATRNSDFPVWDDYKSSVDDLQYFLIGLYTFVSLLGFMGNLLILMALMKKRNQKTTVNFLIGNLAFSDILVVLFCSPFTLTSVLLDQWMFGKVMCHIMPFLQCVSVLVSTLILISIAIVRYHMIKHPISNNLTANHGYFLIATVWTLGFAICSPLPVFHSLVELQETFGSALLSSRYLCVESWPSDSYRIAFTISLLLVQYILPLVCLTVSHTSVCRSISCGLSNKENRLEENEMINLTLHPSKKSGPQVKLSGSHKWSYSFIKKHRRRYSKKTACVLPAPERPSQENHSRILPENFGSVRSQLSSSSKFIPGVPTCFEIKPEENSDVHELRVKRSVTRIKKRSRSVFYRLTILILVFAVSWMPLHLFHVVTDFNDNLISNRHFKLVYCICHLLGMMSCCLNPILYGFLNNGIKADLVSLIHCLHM

NPY2R = biological target: T2, NPY2R; test: cell-based or functional assay
T2 sequence (P49146 1-381, species assumed, looked up): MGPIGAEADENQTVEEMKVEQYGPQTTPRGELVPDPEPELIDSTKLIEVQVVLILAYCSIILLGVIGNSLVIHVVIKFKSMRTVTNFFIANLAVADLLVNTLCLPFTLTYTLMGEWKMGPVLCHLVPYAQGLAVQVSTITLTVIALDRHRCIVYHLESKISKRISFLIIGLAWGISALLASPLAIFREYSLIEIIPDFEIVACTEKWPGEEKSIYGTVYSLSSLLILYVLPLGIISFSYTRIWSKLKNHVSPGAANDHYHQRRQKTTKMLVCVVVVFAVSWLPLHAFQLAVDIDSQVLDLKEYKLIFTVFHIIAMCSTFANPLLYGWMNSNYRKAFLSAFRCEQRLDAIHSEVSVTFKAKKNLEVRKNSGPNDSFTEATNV

B1: Compound A53 (peptide)
peptide: PKPEAPGKDASPEEWNRYYADLK([γGlu-γGlu-C20 diacid])HYLNWLTRQRF-NH2
modifications: N-terminus assumed
SMILES: CC(C)C[C@H](NC(=O)[C@H](CC(=O)O)NC(=O)[C@H](C)NC(=O)[C@H](Cc1ccc(O)cc1)NC(=O)[C@H](Cc1ccc(O)cc1)NC(=O)[C@H](CCCNC(=N)N)NC(=O)[C@H](CC(N)=O)NC(=O)[C@H](Cc1c[nH]c2ccccc12)NC(=O)[C@H](CCC(=O)O)NC(=O)[C@H](CCC(=O)O)NC(=O)[C@@H]1CCCN1C(=O)[C@H](CO)NC(=O)[C@H](C)NC(=O)[C@H](CC(=O)O)NC(=O)[C@H](CCCCN)NC(=O)CNC(=O)[C@@H]1CCCN1C(=O)[C@H](C)NC(=O)[C@H](CCC(=O)O)NC(=O)[C@@H]1CCCN1C(=O)[C@H](CCCCN)NC(=O)[C@@H]1CCCN1)C(=O)N[C@@H](CCCCNC(=O)CC[C@H](NC(=O)CC[C@H](NC(=O)CCCCCCCCCCCCCCCCCCC(=O)O)C(=O)O)C(=O)O)C(=O)N[C@@H](Cc1c[nH]cn1)C(=O)N[C@@H](Cc1ccc(O)cc1)C(=O)N[C@@H](CC(C)C)C(=O)N[C@@H](CC(N)=O)C(=O)N[C@@H](Cc1c[nH]c2ccccc12)C(=O)N[C@@H](CC(C)C)C(=O)N[C@H](C(=O)N[C@@H](CCCNC(=N)N)C(=O)N[C@@H](CCC(N)=O)C(=O)N[C@@H](CCCNC(=N)N)C(=O)N[C@@H](Cc1ccccc1)C(N)=O)[C@@H](C)O
NPY5R pEC50 (NPY5R): 7.3 -Log(EC50, M) | NPY2R pEC50 (NPY2R): 8.7 -Log(EC50, M)

Binder: PKPEAPGK([γGlu-γGlu-C20 diacid])DASPEEWNRYYADLRHYLNWLTRQR[Phe(4-Me)]-NH2 [Compound A58]
NPY5R pEC50 (NPY5R): 8.8 -Log(EC50, M) | NPY2R pEC50 (NPY2R): 10.3 -Log(EC50, M)

B4: Compound A52 (peptide)
peptide: PKPEAPGKDASPEEWNRYYADLRHK([γGlu-γGlu-C20 diacid])LNWLTRQRF-NH2
modifications: N-terminus assumed
SMILES: CC(C)C[C@H](NC(=O)[C@H](CC(=O)O)NC(=O)[C@H](C)NC(=O)[C@H](Cc1ccc(O)cc1)NC(=O)[C@H](Cc1ccc(O)cc1)NC(=O)[C@H](CCCNC(=N)N)NC(=O)[C@H](CC(N)=O)NC(=O)[C@H](Cc1c[nH]c2ccccc12)NC(=O)[C@H](CCC(=O)O)NC(=O)[C@H](CCC(=O)O)NC(=O)[C@@H]1CCCN1C(=O)[C@H](CO)NC(=O)[C@H](C)NC(=O)[C@H](CC(=O)O)NC(=O)[C@H](CCCCN)NC(=O)CNC(=O)[C@@H]1CCCN1C(=O)[C@H](C)NC(=O)[C@H](CCC(=O)O)NC(=O)[C@@H]1CCCN1C(=O)[C@H](CCCCN)NC(=O)[C@@H]1CCCN1)C(=O)N[C@@H](CCCNC(=N)N)C(=O)N[C@@H](Cc1c[nH]cn1)C(=O)N[C@@H](CCCCNC(=O)CC[C@H](NC(=O)CC[C@H](NC(=O)CCCCCCCCCCCCCCCCCCC(=O)O)C(=O)O)C(=O)O)C(=O)N[C@@H](CC(C)C)C(=O)N[C@@H](CC(N)=O)C(=O)N[C@@H](Cc1c[nH]c2ccccc12)C(=O)N[C@@H](CC(C)C)C(=O)N[C@H](C(=O)N[C@@H](CCCNC(=N)N)C(=O)N[C@@H](CCC(N)=O)C(=O)N[C@@H](CCCNC(=N)N)C(=O)N[C@@H](Cc1ccccc1)C(N)=O)[C@@H](C)O
NPY5R pEC50 (NPY5R): 8 -Log(EC50, M) | NPY2R pEC50 (NPY2R): 8.4 -Log(EC50, M)

B5: Compound A50 (peptide)
peptide: PKPEAPGKDASPEEWNRYYADLRHYLNWLTRK([γGlu-γGlu-C20 diacid])RF-NH2
modifications: N-terminus assumed
SMILES: CC(C)C[C@H](NC(=O)[C@H](CC(=O)O)NC(=O)[C@H](C)NC(=O)[C@H](Cc1ccc(O)cc1)NC(=O)[C@H](Cc1ccc(O)cc1)NC(=O)[C@H](CCCNC(=N)N)NC(=O)[C@H](CC(N)=O)NC(=O)[C@H](Cc1c[nH]c2ccccc12)NC(=O)[C@H](CCC(=O)O)NC(=O)[C@H](CCC(=O)O)NC(=O)[C@@H]1CCCN1C(=O)[C@H](CO)NC(=O)[C@H](C)NC(=O)[C@H](CC(=O)O)NC(=O)[C@H](CCCCN)NC(=O)CNC(=O)[C@@H]1CCCN1C(=O)[C@H](C)NC(=O)[C@H](CCC(=O)O)NC(=O)[C@@H]1CCCN1C(=O)[C@H](CCCCN)NC(=O)[C@@H]1CCCN1)C(=O)N[C@@H](CCCNC(=N)N)C(=O)N[C@@H](Cc1c[nH]cn1)C(=O)N[C@@H](Cc1ccc(O)cc1)C(=O)N[C@@H](CC(C)C)C(=O)N[C@@H](CC(N)=O)C(=O)N[C@@H](Cc1c[nH]c2ccccc12)C(=O)N[C@@H](CC(C)C)C(=O)N[C@H](C(=O)N[C@@H](CCCNC(=N)N)C(=O)N[C@@H](CCCCNC(=O)CC[C@H](NC(=O)CC[C@H](NC(=O)CCCCCCCCCCCCCCCCCCC(=O)O)C(=O)O)C(=O)O)C(=O)N[C@@H](CCCNC(=N)N)C(=O)N[C@@H](Cc1ccccc1)C(N)=O)[C@@H](C)O
NPY5R pEC50 (NPY5R): 6 -Log(EC50, M) | NPY2R pEC50 (NPY2R): 6 -Log(EC50, M)

Second part, the binder after the results:

NPY5R pEC50 (NPY5R): 6 -Log(EC50, M) | NPY2R pEC50 (NPY2R): 6 -Log(EC50, M)
B2: Compound A51 (peptide)
peptide: PKPEAPGKDASPEEWNRYYADLRHYLK([γGlu-γGlu-C20 diacid])WLTRQRF-NH2
modifications: N-terminus assumed
SMILES: CC(C)C[C@H](NC(=O)[C@H](CC(=O)O)NC(=O)[C@H](C)NC(=O)[C@H](Cc1ccc(O)cc1)NC(=O)[C@H](Cc1ccc(O)cc1)NC(=O)[C@H](CCCNC(=N)N)NC(=O)[C@H](CC(N)=O)NC(=O)[C@H](Cc1c[nH]c2ccccc12)NC(=O)[C@H](CCC(=O)O)NC(=O)[C@H](CCC(=O)O)NC(=O)[C@@H]1CCCN1C(=O)[C@H](CO)NC(=O)[C@H](C)NC(=O)[C@H](CC(=O)O)NC(=O)[C@H](CCCCN)NC(=O)CNC(=O)[C@@H]1CCCN1C(=O)[C@H](C)NC(=O)[C@H](CCC(=O)O)NC(=O)[C@@H]1CCCN1C(=O)[C@H](CCCCN)NC(=O)[C@@H]1CCCN1)C(=O)N[C@@H](CCCNC(=N)N)C(=O)N[C@@H](Cc1c[nH]cn1)C(=O)N[C@@H](Cc1ccc(O)cc1)C(=O)N[C@@H](CC(C)C)C(=O)N[C@@H](CCCCNC(=O)CC[C@H](NC(=O)CC[C@H](NC(=O)CCCCCCCCCCCCCCCCCCC(=O)O)C(=O)O)C(=O)O)C(=O)N[C@@H](Cc1c[nH]c2ccccc12)C(=O)N[C@@H](CC(C)C)C(=O)N[C@H](C(=O)N[C@@H](CCCNC(=N)N)C(=O)N[C@@H](CCC(N)=O)C(=O)N[C@@H](CCCNC(=N)N)C(=O)N[C@@H](Cc1ccccc1)C(N)=O)[C@@H](C)O

NPY5R pEC50 (NPY5R): 7.7 -Log(EC50, M) | NPY2R pEC50 (NPY2R): 8.9 -Log(EC50, M)
B3: Compound A55 (peptide)
peptide: PKPEAPGKDASPEEWK([γGlu-γGlu-C20 diacid])RYYADLRHYLNWLTRQRF-NH2
modifications: N-terminus assumed
SMILES: CC(C)C[C@H](NC(=O)[C@H](CC(=O)O)NC(=O)[C@H](C)NC(=O)[C@H](Cc1ccc(O)cc1)NC(=O)[C@H](Cc1ccc(O)cc1)NC(=O)[C@H](CCCNC(=N)N)NC(=O)[C@H](CCCCNC(=O)CC[C@H](NC(=O)CC[C@H](NC(=O)CCCCCCCCCCCCCCCCCCC(=O)O)C(=O)O)C(=O)O)NC(=O)[C@H](Cc1c[nH]c2ccccc12)NC(=O)[C@H](CCC(=O)O)NC(=O)[C@H](CCC(=O)O)NC(=O)[C@@H]1CCCN1C(=O)[C@H](CO)NC(=O)[C@H](C)NC(=O)[C@H](CC(=O)O)NC(=O)[C@H](CCCCN)NC(=O)CNC(=O)[C@@H]1CCCN1C(=O)[C@H](C)NC(=O)[C@H](CCC(=O)O)NC(=O)[C@@H]1CCCN1C(=O)[C@H](CCCCN)NC(=O)[C@@H]1CCCN1)C(=O)N[C@@H](CCCNC(=N)N)C(=O)N[C@@H](Cc1c[nH]cn1)C(=O)N[C@@H](Cc1ccc(O)cc1)C(=O)N[C@@H](CC(C)C)C(=O)N[C@@H](CC(N)=O)C(=O)N[C@@H](Cc1c[nH]c2ccccc12)C(=O)N[C@@H](CC(C)C)C(=O)N[C@H](C(=O)N[C@@H](CCCNC(=N)N)C(=O)N[C@@H](CCC(N)=O)C(=O)N[C@@H](CCCNC(=N)N)C(=O)N[C@@H](Cc1ccccc1)C(N)=O)[C@@H](C)O

NPY5R pEC50 (NPY5R): 8 -Log(EC50, M) | NPY2R pEC50 (NPY2R): 7.7 -Log(EC50, M)
B6: Compound A54 (peptide)
peptide: PKPEAPGKDASPEEWNRYYK([γGlu-γGlu-C20 diacid])DLRHYLNWLTRQRF-NH2
modifications: N-terminus assumed
SMILES: CC(C)C[C@H](NC(=O)[C@H](CC(=O)O)NC(=O)[C@H](CCCCNC(=O)CC[C@H](NC(=O)CC[C@H](NC(=O)CCCCCCCCCCCCCCCCCCC(=O)O)C(=O)O)C(=O)O)NC(=O)[C@H](Cc1ccc(O)cc1)NC(=O)[C@H](Cc1ccc(O)cc1)NC(=O)[C@H](CCCNC(=N)N)NC(=O)[C@H](CC(N)=O)NC(=O)[C@H](Cc1c[nH]c2ccccc12)NC(=O)[C@H](CCC(=O)O)NC(=O)[C@H](CCC(=O)O)NC(=O)[C@@H]1CCCN1C(=O)[C@H](CO)NC(=O)[C@H](C)NC(=O)[C@H](CC(=O)O)NC(=O)[C@H](CCCCN)NC(=O)CNC(=O)[C@@H]1CCCN1C(=O)[C@H](C)NC(=O)[C@H](CCC(=O)O)NC(=O)[C@@H]1CCCN1C(=O)[C@H](CCCCN)NC(=O)[C@@H]1CCCN1)C(=O)N[C@@H](CCCNC(=N)N)C(=O)N[C@@H](Cc1c[nH]cn1)C(=O)N[C@@H](Cc1ccc(O)cc1)C(=O)N[C@@H](CC(C)C)C(=O)N[C@@H](CC(N)=O)C(=O)N[C@@H](Cc1c[nH]c2ccccc12)C(=O)N[C@@H](CC(C)C)C(=O)N[C@H](C(=O)N[C@@H](CCCNC(=N)N)C(=O)N[C@@H](CCC(N)=O)C(=O)N[C@@H](CCCNC(=N)N)C(=O)N[C@@H](Cc1ccccc1)C(N)=O)[C@@H](C)O
